Reference: US7981691B2, “Two helix binders” (General Electric Company, priority 2006, dated 2011)
Positions of bridges follow the written chain, without caps; N, C: chain ends. Non-standard residues stand in square brackets, D forms with d. No end group written: not given here. Aib = CC(C)(N)C(=O)O

What was measured:
[1] = target: T1, extracellular domain of the Her2/neu antigen (Fc-Her2) (Homo sapiens, UniProt P04626); test: SPR (BIAcore) binding of two helix peptides to immobilized Fc-Her2; details: relative binding by SPR
T1 construct: The extracellular domain of the Her2/neu antigen was obtained as a conjugate with the Fc region of human IgG; purchased R&D Systems
Method: Binding interactions between the binder and the Her2/neu antigen was measured in vitro using surface plasmon resonance (SPR) detection on a BIAcore™ 3000 instrument (Piscataway, N.J.). The extracellular domain of the Her2/neu antigen was obtained as a conjugate with the Fc region of human IgG (Fc-Her2) from R&D Systems and covalently attached to a CM-5 dextran-functionalized sensor chip (BIAcore™) pre-equilibrated with HBS-EP buffer (0.00M HEPES pH 7.4, 0.15M NaCl, 3 mM EDTA, 0.005% v/v surfactant P20) at 10 μL/min and subsequently activated with 1-ethyl-3-[3-dimethylaminopropyl]carbodiimide hydrochloride (EDC) and N-hydroxysuccinimide (NHS). The Fc-Her2 (5 μg/ml) in 10 mM sodium acetate (pH 5.5) was injected onto the activated sensor chip until the desired immobilization level was achieved (2 min). Residual activated groups on the sensor chip were blocked by injection of ethanolamine (1 M, pH 8.5). Any non-covalently bound conjugate was removed by repeated (n=5) washing with 2.5 M NaCl2, 50 mM NaOH.
A second flow cell on the same sensor chip was treated identically, except with no Fc-Her2 immobilization, to serve as a control surface for refractive index changes and non-specific binding interactions with the sensor chip. Prior to the kinetic study, binding of the target analyte was tested on both surfaces and a surface stability experiment was performed to ensure adequate removal of the bound analyte and regeneration of the sensor chip following treatment with 2.5 M NaCl, 50 mM NaOH. SPR sensorgrams were analyzed using the BiaEval (BIAcore) software.
The binding interactions between the generated peptide and Fc-Her2 conjugate were measured using SPR (BIAcore). To minimize mass transport limitations, a surface density of ˜3000 Rus (Response Units) Fc-Her2 was used, resulting in a maximal binding response ˜100 RU with ˜100 nM of the synthesized peptide. SPR measurements were collected at eight analyte concentrations (0-100 nM peptide) and the resulting sensorgrams were fitted to a 1:1 Langmuir binding model.

[2] = CD spectroscopy of 2-helix scaffolds (secondary structure, helicity); assay type: physicochemical; details: Circular Dichroism
Method: Secondary structure of different 2-helix scaffold was determined by CD analysis. All CD spectra were obtained on an JASCO J-815 CD spectropolarimeter in the wavelength range of 250-185 nm using 1 nm bandwidth, 0.5 nm resolution, 4 seconds averaging time, 3 scan per sample, 0 second delay, and a path length of 1 mm. Spectra were recorded at 20° C., unless otherwise noted, in a thermostated circular cuvette, with peptide concentrations of 15 μM in 13 mM of K2HPO4 buffer at pH8. Results are reported as mean residue ellipticity (MRW).

| Sequence | binding to target molecule Her2 (in words) [1] | helicity / population of helix conformers (in words) [2] |
| --- | --- | --- |
| VENKCNKEMRNAYWEIALLPNLNNQXKRAXIRSXYDDPC (VENKCNKEMRNAYWEIALLPNLNNQ[Aib]KRA[Aib]IRS[Aib]YDDPC-NH2; disulfide 5-39 (inferred)) [SEQ. ID. NO. 25] | unable to bind target molecule | helicity increases |
| VENKCNKXMRNXYWEXALLPNLNNQQKRAFIRSLYDDPC (VENKCNK[Aib]MRN[Aib]YWE[Aib]ALLPNLNNQQKRAFIRSLYDDPC-NH2; disulfide 5-39 (inferred)) [SEQ. ID. NO. 24] | unable to bind target molecule | helicity increases |
| VENKCNKXMRNXYWEXALLPNLNNQXKRAXIRSXYDDPC (VENKCNK[Aib]MRN[Aib]YWE[Aib]ALLPNLNNQ[Aib]KRA[Aib]IRS[Aib]YDDPC-NH2; disulfide 5-39 (inferred)) [SEQ. ID. NO. 26] | unable to bind target molecule | helicity increases |
